In general, Kd refers to the equilibrium constant for the complex coming apart. Low readings indicate tighter binding, high ones weaker binding.

Kd data for one substance are collected here from article PMC8440498.

For the experiment, the target named is Aβ1-40 (human). Nature of the experiment: ELISA.

“clusterin (human plasma apolipoprotein J) (from UniProt P10909 23-227; P10909 228-449) (natural protein)” gave a Kd of 2 nM.
